Measured values taken from US20140087995A1 (published 2014).
Numbered stars: 1 amine (or outer) side, 2 acyl side, 3 side chain; on linkers, the order of the positions; unused ones are H or OH. Bridge positions count the residues as written; N and C are the ends. Side chains are listed from the residue outwards. Ends that are not written are not given here. * marks the point of attachment. C20 diacid = O=C(O)CCCCCCCCCCCCCCCCCCC(=O)*; γGlu = O=C(O)[C@H](CCC(=O)[*:2])N[*:1]

B1: N^ε1-[(4S)-4-carboxy-4-(19-carboxynonadecanoylamino)butanoyl]-[Arg17,Pro21,Pro27,Glu35]-h-amylin (peptide)
peptide: K([γGlu-C20 diacid])CNTATCATQRLANFLRHSSPNFGAIPSSTNVGSETY-NH2
modifications: disulfide 2-7; N-terminus assumed
SMILES: CC[C@H](C)[C@H](NC(=O)[C@H](C)NC(=O)CNC(=O)[C@H](Cc1ccccc1)NC(=O)[C@H](CC(N)=O)NC(=O)[C@@H]1CCCN1C(=O)[C@H](CO)NC(=O)[C@H](CO)NC(=O)[C@H](Cc1c[nH]cn1)NC(=O)[C@H](CCCNC(=N)N)NC(=O)[C@H](CC(C)C)NC(=O)[C@H](Cc1ccccc1)NC(=O)[C@H](CC(N)=O)NC(=O)[C@H](C)NC(=O)[C@H](CC(C)C)NC(=O)[C@H](CCCNC(=N)N)NC(=O)[C@H](CCC(N)=O)NC(=O)[C@@H](NC(=O)[C@H](C)NC(=O)[C@@H]1CSSC[C@H](NC(=O)[C@@H](N)CCCCNC(=O)CC[C@H](NC(=O)CCCCCCCCCCCCCCCCCCC(=O)O)C(=O)O)C(=O)N[C@@H](CC(N)=O)C(=O)N[C@@H]([C@@H](C)O)C(=O)N[C@@H](C)C(=O)N[C@@H]([C@@H](C)O)C(=O)N1)[C@@H](C)O)C(=O)N1CCC[C@H]1C(=O)N[C@@H](CO)C(=O)N[C@@H](CO)C(=O)N[C@H](C(=O)N[C@@H](CC(N)=O)C(=O)N[C@H](C(=O)NCC(=O)N[C@@H](CO)C(=O)N[C@@H](CCC(=O)O)C(=O)N[C@H](C(=O)N[C@@H](Cc1ccc(O)cc1)C(N)=O)[C@@H](C)O)C(C)C)[C@@H](C)O
notes: also called compound 27
B2: N^ε1-[(4S)-4-carboxy-4-(19-carboxynonadecanoylamino)butanoyl]-[Arg17,Pro21,Pro27,His35]-h-amylin (peptide)
peptide: K([γGlu-C20 diacid])CNTATCATQRLANFLRHSSPNFGAIPSSTNVGSHTY-NH2
modifications: disulfide 2-7; N-terminus assumed
SMILES: CC[C@H](C)[C@H](NC(=O)[C@H](C)NC(=O)CNC(=O)[C@H](Cc1ccccc1)NC(=O)[C@H](CC(N)=O)NC(=O)[C@@H]1CCCN1C(=O)[C@H](CO)NC(=O)[C@H](CO)NC(=O)[C@H](Cc1c[nH]cn1)NC(=O)[C@H](CCCNC(=N)N)NC(=O)[C@H](CC(C)C)NC(=O)[C@H](Cc1ccccc1)NC(=O)[C@H](CC(N)=O)NC(=O)[C@H](C)NC(=O)[C@H](CC(C)C)NC(=O)[C@H](CCCNC(=N)N)NC(=O)[C@H](CCC(N)=O)NC(=O)[C@@H](NC(=O)[C@H](C)NC(=O)[C@@H]1CSSC[C@H](NC(=O)[C@@H](N)CCCCNC(=O)CC[C@H](NC(=O)CCCCCCCCCCCCCCCCCCC(=O)O)C(=O)O)C(=O)N[C@@H](CC(N)=O)C(=O)N[C@@H]([C@@H](C)O)C(=O)N[C@@H](C)C(=O)N[C@@H]([C@@H](C)O)C(=O)N1)[C@@H](C)O)C(=O)N1CCC[C@H]1C(=O)N[C@@H](CO)C(=O)N[C@@H](CO)C(=O)N[C@H](C(=O)N[C@@H](CC(N)=O)C(=O)N[C@H](C(=O)NCC(=O)N[C@@H](CO)C(=O)N[C@@H](Cc1c[nH]cn1)C(=O)N[C@H](C(=O)N[C@@H](Cc1ccc(O)cc1)C(N)=O)[C@@H](C)O)C(C)C)[C@@H](C)O
notes: also called compound 60
B3: N^ε1-[(4S)-4-carboxy-4-(19-carboxynonadecanoylamino)butanoyl]-[His14,Arg17,Pro21,Pro27,Arg34]-h-amylin (peptide)
peptide: K([γGlu-C20 diacid])CNTATCATQRLAHFLRHSSPNFGAIPSSTNVGRNTY-NH2
modifications: disulfide 2-7; N-terminus assumed
SMILES: CC[C@H](C)[C@H](NC(=O)[C@H](C)NC(=O)CNC(=O)[C@H](Cc1ccccc1)NC(=O)[C@H](CC(N)=O)NC(=O)[C@@H]1CCCN1C(=O)[C@H](CO)NC(=O)[C@H](CO)NC(=O)[C@H](Cc1c[nH]cn1)NC(=O)[C@H](CCCNC(=N)N)NC(=O)[C@H](CC(C)C)NC(=O)[C@H](Cc1ccccc1)NC(=O)[C@H](Cc1c[nH]cn1)NC(=O)[C@H](C)NC(=O)[C@H](CC(C)C)NC(=O)[C@H](CCCNC(=N)N)NC(=O)[C@H](CCC(N)=O)NC(=O)[C@@H](NC(=O)[C@H](C)NC(=O)[C@@H]1CSSC[C@H](NC(=O)[C@@H](N)CCCCNC(=O)CC[C@H](NC(=O)CCCCCCCCCCCCCCCCCCC(=O)O)C(=O)O)C(=O)N[C@@H](CC(N)=O)C(=O)N[C@@H]([C@@H](C)O)C(=O)N[C@@H](C)C(=O)N[C@@H]([C@@H](C)O)C(=O)N1)[C@@H](C)O)C(=O)N1CCC[C@H]1C(=O)N[C@@H](CO)C(=O)N[C@@H](CO)C(=O)N[C@H](C(=O)N[C@@H](CC(N)=O)C(=O)N[C@H](C(=O)NCC(=O)N[C@@H](CCCNC(=N)N)C(=O)N[C@@H](CC(N)=O)C(=O)N[C@H](C(=O)N[C@@H](Cc1ccc(O)cc1)C(N)=O)[C@@H](C)O)C(C)C)[C@@H](C)O
notes: also called compound 85
B4: N^ε1-[(4S)-4-carboxy-4-(19-carboxynonadecanoylamino)butanoyl]-[His14,Arg17,Pro21,Pro27,His35]-h-amylin (peptide)
peptide: K([γGlu-C20 diacid])CNTATCATQRLAHFLRHSSPNFGAIPSSTNVGSHTY-NH2
modifications: disulfide 2-7; N-terminus assumed
SMILES: CC[C@H](C)[C@H](NC(=O)[C@H](C)NC(=O)CNC(=O)[C@H](Cc1ccccc1)NC(=O)[C@H](CC(N)=O)NC(=O)[C@@H]1CCCN1C(=O)[C@H](CO)NC(=O)[C@H](CO)NC(=O)[C@H](Cc1c[nH]cn1)NC(=O)[C@H](CCCNC(=N)N)NC(=O)[C@H](CC(C)C)NC(=O)[C@H](Cc1ccccc1)NC(=O)[C@H](Cc1c[nH]cn1)NC(=O)[C@H](C)NC(=O)[C@H](CC(C)C)NC(=O)[C@H](CCCNC(=N)N)NC(=O)[C@H](CCC(N)=O)NC(=O)[C@@H](NC(=O)[C@H](C)NC(=O)[C@@H]1CSSC[C@H](NC(=O)[C@@H](N)CCCCNC(=O)CC[C@H](NC(=O)CCCCCCCCCCCCCCCCCCC(=O)O)C(=O)O)C(=O)N[C@@H](CC(N)=O)C(=O)N[C@@H]([C@@H](C)O)C(=O)N[C@@H](C)C(=O)N[C@@H]([C@@H](C)O)C(=O)N1)[C@@H](C)O)C(=O)N1CCC[C@H]1C(=O)N[C@@H](CO)C(=O)N[C@@H](CO)C(=O)N[C@H](C(=O)N[C@@H](CC(N)=O)C(=O)N[C@H](C(=O)NCC(=O)N[C@@H](CO)C(=O)N[C@@H](Cc1c[nH]cn1)C(=O)N[C@H](C(=O)N[C@@H](Cc1ccc(O)cc1)C(N)=O)[C@@H](C)O)C(C)C)[C@@H](C)O
notes: also called compound 66
B5: N^ε1-[(4S)-4-carboxy-4-(19-carboxynonadecanoylamino)butanoyl]-[Arg17,Pro21,Pro27,Lys35]-h-amylin (peptide)
peptide: K([γGlu-C20 diacid])CNTATCATQRLANFLRHSSPNFGAIPSSTNVGSKTY-NH2
modifications: disulfide 2-7; N-terminus assumed
SMILES: CC[C@H](C)[C@H](NC(=O)[C@H](C)NC(=O)CNC(=O)[C@H](Cc1ccccc1)NC(=O)[C@H](CC(N)=O)NC(=O)[C@@H]1CCCN1C(=O)[C@H](CO)NC(=O)[C@H](CO)NC(=O)[C@H](Cc1c[nH]cn1)NC(=O)[C@H](CCCNC(=N)N)NC(=O)[C@H](CC(C)C)NC(=O)[C@H](Cc1ccccc1)NC(=O)[C@H](CC(N)=O)NC(=O)[C@H](C)NC(=O)[C@H](CC(C)C)NC(=O)[C@H](CCCNC(=N)N)NC(=O)[C@H](CCC(N)=O)NC(=O)[C@@H](NC(=O)[C@H](C)NC(=O)[C@@H]1CSSC[C@H](NC(=O)[C@@H](N)CCCCNC(=O)CC[C@H](NC(=O)CCCCCCCCCCCCCCCCCCC(=O)O)C(=O)O)C(=O)N[C@@H](CC(N)=O)C(=O)N[C@@H]([C@@H](C)O)C(=O)N[C@@H](C)C(=O)N[C@@H]([C@@H](C)O)C(=O)N1)[C@@H](C)O)C(=O)N1CCC[C@H]1C(=O)N[C@@H](CO)C(=O)N[C@@H](CO)C(=O)N[C@H](C(=O)N[C@@H](CC(N)=O)C(=O)N[C@H](C(=O)NCC(=O)N[C@@H](CO)C(=O)N[C@@H](CCCCN)C(=O)N[C@H](C(=O)N[C@@H](Cc1ccc(O)cc1)C(N)=O)[C@@H](C)O)C(C)C)[C@@H](C)O
notes: also called compound 35
B6: N^ε1-[(4S)-4-carboxy-4-(19-carboxynonadecanoylamino)butanoyl]-[Arg17,Pro21,Pro27,His34]-h-amylin (peptide)
peptide: K([γGlu-C20 diacid])CNTATCATQRLANFLRHSSPNFGAIPSSTNVGHNTY-NH2
modifications: disulfide 2-7; N-terminus assumed
SMILES: CC[C@H](C)[C@H](NC(=O)[C@H](C)NC(=O)CNC(=O)[C@H](Cc1ccccc1)NC(=O)[C@H](CC(N)=O)NC(=O)[C@@H]1CCCN1C(=O)[C@H](CO)NC(=O)[C@H](CO)NC(=O)[C@H](Cc1c[nH]cn1)NC(=O)[C@H](CCCNC(=N)N)NC(=O)[C@H](CC(C)C)NC(=O)[C@H](Cc1ccccc1)NC(=O)[C@H](CC(N)=O)NC(=O)[C@H](C)NC(=O)[C@H](CC(C)C)NC(=O)[C@H](CCCNC(=N)N)NC(=O)[C@H](CCC(N)=O)NC(=O)[C@@H](NC(=O)[C@H](C)NC(=O)[C@@H]1CSSC[C@H](NC(=O)[C@@H](N)CCCCNC(=O)CC[C@H](NC(=O)CCCCCCCCCCCCCCCCCCC(=O)O)C(=O)O)C(=O)N[C@@H](CC(N)=O)C(=O)N[C@@H]([C@@H](C)O)C(=O)N[C@@H](C)C(=O)N[C@@H]([C@@H](C)O)C(=O)N1)[C@@H](C)O)C(=O)N1CCC[C@H]1C(=O)N[C@@H](CO)C(=O)N[C@@H](CO)C(=O)N[C@H](C(=O)N[C@@H](CC(N)=O)C(=O)N[C@H](C(=O)NCC(=O)N[C@@H](Cc1c[nH]cn1)C(=O)N[C@@H](CC(N)=O)C(=O)N[C@H](C(=O)N[C@@H](Cc1ccc(O)cc1)C(N)=O)[C@@H](C)O)C(C)C)[C@@H](C)O
notes: also called compound 77

Biological target: T1, human amylin 3(a) receptor (human calcitonin receptor co-expressed with RAMP-3) (human, UniProt P30988 25-474; O60896 24-148, limits assumed)
T1 sequence (looked up) 1: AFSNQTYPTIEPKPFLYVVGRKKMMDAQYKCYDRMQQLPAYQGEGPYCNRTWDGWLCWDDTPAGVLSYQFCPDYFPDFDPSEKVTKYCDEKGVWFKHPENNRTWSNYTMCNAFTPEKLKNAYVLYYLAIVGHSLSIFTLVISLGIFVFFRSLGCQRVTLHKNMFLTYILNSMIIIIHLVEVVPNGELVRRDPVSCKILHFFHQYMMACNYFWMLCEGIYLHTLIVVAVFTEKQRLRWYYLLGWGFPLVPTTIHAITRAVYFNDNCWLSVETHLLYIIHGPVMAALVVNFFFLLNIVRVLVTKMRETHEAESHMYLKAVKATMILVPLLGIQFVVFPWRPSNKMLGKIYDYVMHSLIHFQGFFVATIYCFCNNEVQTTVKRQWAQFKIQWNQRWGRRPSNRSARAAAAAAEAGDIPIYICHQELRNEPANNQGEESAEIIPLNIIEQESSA
T1 sequence (looked up) 2: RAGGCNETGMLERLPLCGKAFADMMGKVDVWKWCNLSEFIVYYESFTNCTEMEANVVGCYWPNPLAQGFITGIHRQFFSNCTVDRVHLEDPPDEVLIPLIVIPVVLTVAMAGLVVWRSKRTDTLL
Experiment: cell-based or functional assay

Binder	Ratio hCT/hAmylin funct. (hCTR EC50 over hAmylin-R EC50)	hAmylin-R funct. EC50 (pM)
B1	22.6	133
B2	15.3	351
B3	26.6	146
B4	20.1	27
B5	15	364
B6	37.3	145
